Substrate in series [1]: Nc1ncnc2c1ncn2[C@@H]1O[C@H](COP(=O)(O)OP(=O)(O)OP(=O)(O)O)[C@@H](O)[C@H]1O
Nature of the series: ATP hydrolysis by Cet1(201-549)p. The class given is biochemical, Saccharomyces cerevisiae. The following applies: other: ATP hydrolysis by the truncated enzyme; pH 7.0; 30.0 °C. Here is the method:
(FIG. 8A) Protein titration. Reaction mixtures (10 μl) containing 50 mM Tris HCl (pH 7.0), 5 mM DTT, 2 mM MnCl2, 1 mM [γ^32 P]ATP, and either Cet1p, Cet1(201-549)p, or Cet1(246-549)p were incubated for 15 min at 30° C. Pi release is plotted as a function of input protein. (FIG. 8B) Kinetics. Reaction mixtures (100 μl) containing 50 mM Tris HCl (pH 7.0), 5 mM DTT, 2 mM MnCl2, 1 mM [γ^32 P]ATP, and either 8, 16, or 32 nM Cet1p were incubated at 30° C. Aliquots (10 μl ) were withdrawn at the times indicated and quenched immediately by the addition of […] of 5 M formic acid. Pi release is plotted as a function of time. (FIG. 8C) Hydrolysis of [α^32 P]ATP. Reaction mixtures (100 μl) containing 50 mM Tris HCl (pH 7.0), 5 mM DTT, 2 mM MnCl2, 1 mM [α^32 P]ATP, and 100 ng of Cet1p were incubated at 30° C. Aliquots (10 μl) were withdrawn at the times indicated and quenched with formic acid. The products were analyzed by TLC. The levels of [α^32 P]ADP (o) and [α^32 P]AMP (q) are plotted as a function of time. An otherwise identical reaction containing 1 mM [γ^32 P]ATP was analyzed in parallel; Pi release (.cndot.). (FIG. 8D) ATP-dependence. Reaction mixtures (20 μl) containing 50 mM Tris HCl (pH 7.0), 5 mM DTT, 2 mM MnC2, 40 pg of Cet1p, and [γ^32 P]ATP as indicated were incubated for 15 min at 30° C. Pi release is plotted as a function of ATP concentration. […]

Substrate in series [2]: Nc1ncnc2c1ncn2[C@@H]1O[C@H](COP(=O)(O)OP(=O)(O)OP(=O)(O)O)[C@@H](O)[C@H]1O
The series is described as follows: ATP hydrolysis by Cet1p, manganese-dependent. The class given is biochemical, Saccharomyces cerevisiae. To be noted: other: 2 mM MnCl2, pH 7.0, 30° C., double-reciprocal plot. Here is the method:
(FIG. 8A) Protein titration. Reaction mixtures (10 μl) containing 50 mM Tris HCl (pH 7.0), 5 mM DTT, 2 mM MnCl2, 1 mM [γ^32 P]ATP, and either Cet1p, Cet1(201-549)p, or Cet1(246-549)p were incubated for 15 min at 30° C. Pi release is plotted as a function of input protein. (FIG. 8B) Kinetics. Reaction mixtures (100 μl) containing 50 mM Tris HCl (pH 7.0), 5 mM DTT, 2 mM MnCl2, 1 mM [γ^32 P]ATP, and either 8, 16, or 32 nM Cet1p were incubated at 30° C. Aliquots (10 μl ) were withdrawn at the times indicated and quenched immediately by the addition of […] of 5 M formic acid. Pi release is plotted as a function of time. (FIG. 8C) Hydrolysis of [α^32 P]ATP. […] The products were analyzed by TLC. […] An otherwise identical reaction containing 1 mM [γ^32 P]ATP was analyzed in parallel; Pi release (.cndot.). […]
The extent of ^32 Pi release from [γ^32 P]ATP during a 15 min reaction was proportional to the amount of input Cet1p protein (FIG. 8A). ^32 Pi accumulated with time over 30 min; the rate of reaction varied linearly with Cet1p concentration (FIG. 8B). From a plot of initial rate versus enzyme concentration, a turnover number of 25 s^-1 was calculated. Cet1p catalyzed the quantitative conversion of [α^32P]ATP to [α^32 P]ADP. […] No formation of [α^32 P]AMP from [α^32 P]ATP was detected, even after 20-45 min of incubation, by which time all of the nucleotide had been converted to ADP. […]

B1: Cet1(201-549)p (Saccharomyces cerevisiae S288C) (protein)
chain: ANAAVDNIFEEKATLQSKKNNIKRDLEVLNEISASSKPSKYRNVPIWAQKWKPTIKALQSINVKDLKIDPSFLNIIPDDDLTKSVQDWVYATIYSIAPELRSFIELEMKFGVIIDAKGPDRVNPPVSSQCVFTELDAHLTPNIDASLFKELSKYIRGISEVTENTGKFSIIESQTRDSVYRVGLSTQRPRFLRMSTDIKTGRVGQFIEKRHVAQLLLYSPKDSYDVKISLNLELPVPDNDPPEKYKSQSPISERTKDRVSYIHNDSCTRIDITKVENHNQNSKSRQSETTHEVELEINTPALLNAFDNITNDSKEYASLIRTFLNNGTIIRRKLSSLSYEIFEGSKKVM
notes: The kinetic parameters determined for ATP hydrolysis by Cet1(201-549)p; His-tag; made in house; host or cells: Escherichia coli BL21(DE3)
For B1, the Km in series [1] was 3.3 µM.

B2: Cet1p (Saccharomyces cerevisiae S288C) (protein)
chain: MSYTDNPPQTKRALSLDDLVNHDENEKVKLQKLSEAANGSRPFAENLESDINQTETGQAAPIDNYKESTGHGSHSQKPKSRKSSNDDEETDTDDEMGASGEINFDSEMDFDYDKQHRNLLSNGSPPMNDGSDANAKLEKPSDDSIHQNSKSDEEQRIPKQGNEGNIASNYITQVPLQKQKQTEKKIAGNAVGSVVKKEEEANAAVDNIFEEKATLQSKKNNIKRDLEVLNEISASSKPSKYRNVPIWAQKWKPTIKALQSINVKDLKIDPSFLNIIPDDDLTKSVQDWVYATIYSIAPELRSFIELEMKFGVIIDAKGPDRVNPPVSSQCVFTELDAHLTPNIDASLFKELSKYIRGISEVTENTGKFSIIESQTRDSVYRVGLSTQRPRFLRMSTDIKTGRVGQFIEKRHVAQLLLYSPKDSYDVKISLNLELPVPDNDPPEKYKSQSPISERTKDRVSYIHNDSCTRIDITKVENHNQNSKSRQSETTHEVELEINTPALLNAFDNITNDSKEYASLIRTFLNNGTIIRRKLSSLSYEIFEGSKKVM
notes: the two truncated proteins were as active as full-length Cet1p in hydrolyzing ATP; His-tag; made in house; host or cells: Escherichia coli BL21(DE3)
On to B2, for which the Km in series [2] was found to be 2.8 µM.

One may read the Km as the substrate concentration at which the rate is half of its maximum.
